Data on one substance can be found in US20230159624A1.

Bounds are passed on as bounds.

Test [1] has as its target MT1-MMP (R&D, 918-MP-010) (UniProt P50281). Nature of the test: enzyme inhibition kinetics with fluorescent substrate, LS-55 spectrofluorimeter.
Test [2] has the same target. Nature of the test: enzyme inhibition kinetics with fluorescent substrate Mca-K-P-L-G-L-Dpa-A-R-NH2, LS-55 spectrofluorimeter.

On to “Wild Type TIMP-1 (inhibitory domain) (from UniProt P01033 24-149)”, for which the Ki^app was over 0.15 µM in test [1] and 0.178 µM in test [2].
